Laboratory results: patent US20170355769A1 (AbbVie / Abbott, published 2017)
Positions count from the first letter of the chain named.

T1: Human full length B7-H3 (human, UniProt Q5ZPR3 29-534)
T1 construct: On 3T12 fibroblasts expressing full length human B7-H3 or on NCI-H1650 cells; signal peptide residues 1-28 stated; also called huB7-H3; CD276
T1 sequence: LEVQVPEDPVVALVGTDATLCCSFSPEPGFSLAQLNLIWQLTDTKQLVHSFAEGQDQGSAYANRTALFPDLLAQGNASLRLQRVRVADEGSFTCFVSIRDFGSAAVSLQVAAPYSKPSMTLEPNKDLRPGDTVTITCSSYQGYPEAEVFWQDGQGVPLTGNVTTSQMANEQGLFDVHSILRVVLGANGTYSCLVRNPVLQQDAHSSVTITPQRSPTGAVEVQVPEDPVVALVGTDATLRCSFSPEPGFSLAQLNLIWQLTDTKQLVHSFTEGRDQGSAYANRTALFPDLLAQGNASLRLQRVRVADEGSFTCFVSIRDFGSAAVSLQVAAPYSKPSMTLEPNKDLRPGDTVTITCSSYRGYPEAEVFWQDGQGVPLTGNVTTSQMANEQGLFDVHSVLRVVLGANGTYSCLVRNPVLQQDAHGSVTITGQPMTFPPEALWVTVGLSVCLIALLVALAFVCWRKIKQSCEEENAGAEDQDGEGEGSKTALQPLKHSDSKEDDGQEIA

T2: Human B7-H3-ECD (His tag) (human, UniProt Q5ZPR3 29-461)
T2 construct: SPR analyte; also called huB7-H3; soluble ECD of human B7-H3
T2 sequence: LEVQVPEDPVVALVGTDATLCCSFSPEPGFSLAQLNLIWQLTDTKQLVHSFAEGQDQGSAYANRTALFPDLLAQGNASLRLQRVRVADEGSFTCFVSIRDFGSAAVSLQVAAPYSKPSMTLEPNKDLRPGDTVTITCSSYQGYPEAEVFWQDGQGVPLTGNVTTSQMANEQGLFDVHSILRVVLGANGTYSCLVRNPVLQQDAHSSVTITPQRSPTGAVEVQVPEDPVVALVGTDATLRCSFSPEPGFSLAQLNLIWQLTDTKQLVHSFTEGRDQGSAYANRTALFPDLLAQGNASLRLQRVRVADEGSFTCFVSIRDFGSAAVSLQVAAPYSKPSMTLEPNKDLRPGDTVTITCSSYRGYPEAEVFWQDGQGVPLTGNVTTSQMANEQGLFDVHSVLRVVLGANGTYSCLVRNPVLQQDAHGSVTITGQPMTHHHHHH

B1: chAb18 (antibody, IgG1, V domains shown)
VH: QVQLQQSAAELARPGASVKMSCKASGYSFTSYTIHWVKQRPGQGLEWIGYINPNSRNTDYNQKFKDETTLTADRSSSTAYMQLISLTSEDSAVYYCARYSGSTPYWYFDVWGAGTTVTVSS
VL: QIVLTQSPAILSASPGEKVTMTCRASSSVSYMNWYQQKPGSSPKPWIYATSNLASGVPARFSVSVSGTSHSLTISRVEAEDAATYYCQQWSSNPLTFGAGTKLELK
notes: chimeric, huIgG1/k
B2: chAb2 (antibody, IgG1, V domains shown)
VH: QVQLQQPGAELVKPGASVKLSCKASGYTFTSYWMHWVKQRPGQGLEWIGMIHPDSGTTNYNEKFRSKATLTVDKSSSTAYMQLSSLTSEDSAVYYCAVYYGSTYWYFDVWGTGTTVTVSS
VL: DVVMTQTPLSLPVSLGDQAYISCRSSQSLVHINGNTYLHWYRQKPGQSPKLLIYKVSNRFSGVPDRFSGSGSGTDFTLKISRVEAEDLGVYFCSQSTHFPFTFGSGTKLEIK
notes: chimeric, huIgG1/k
B3: chAb11 (antibody, IgG1, V domains shown)
VH: EVKLVESGGGLVQPGGSLRLSCATSGFTFTNYYMSWVRQPPGKALEWLGFIRNKANDYTTEYSASVKGRFTISRDNSQSILYLQMNTLRAEDSATYYCARESPGNPFAYWGQGTLVTVSA
VL: DIVMTQSPSSLTVTAGEKVTMTCKSSQSLLNSGTQKNFLTWYQQKPGQPPKLLIYWASTRESGVPDRFTGSGSGTDFTLTISSVQAEDLAVYFCQNDYIYPLTFGAGTKLELK
notes: chimeric, huIgG1/k
B4: chAb6 (antibody, IgG1, V domains shown)
VH: QVQLQQSGAELMKPGASVKISCKATGYTFSRYWIEWVKQRPGHGLEWIGEILPGSGSTNYNEKFKGKATFTADTSSNTAYMQVSSLTSEDSAVHYCARRGYGYVPYALDYWGQGTSVTVSS
VL: EIQMTQTTSSLSASLGDRVTISCRASQDISNSLNWYQQKPDGTVNLLIYYTSRLYSGVPSRFSGSGSGTDYSLTISNLEQEDIATYFCQQGNTLPYTFGGGTKLEIK
notes: chimeric, huIgG1/k
B5: chAb16 (antibody, IgG1, V domains shown)
VH: EVKLLESGGGLVQPGGSLKLSCAASGFDFSRYWMSWVRQAPGKGLEWIGEINPDSSTINYTPSLKDKFIISRDNAKNTLYLQMSKVRSEDTALYYCARPGFGNYIYAMDYWGQGTSVTVSS
VL: B4 VL with E1D, S22N, S32F, N45K, S56L, Y96P
notes: chimeric, huIgG1/k
B6: chAb14 (antibody, IgG1, V domains shown)
VH: EVKLVESGGGLVKPGGSLKLSCAASGFTFSSYGMSWVRQTPEKRLEWVATISGGGTNTYYPDSVEGRFTISRDNAKNFLYLQMSSLRSEDTALYYCARHYGSQTMDYWGQGTSVTVSS
VL: DIQMTQSPASLSASVGETVTITCRTSGNIHNYLTWYQQKQGKSPQLLVYNAKTLADGVPSRFSGSGSGTQFSLKINSLQPEDFGSYYCQHFWSIMWTFGGGTKLEIK
notes: chimeric, huIgG1/k
B7: chAb4 (antibody, IgG1, V domains shown)
VH: QVQLQQPGAELVKPGASVKLSCKASGYSFTSYWMHWVKQRPGQGLEWIGMIHPNSGSNNYNEKFKSKATLTVDKSSNTAYMQLSSLTSEDSAVYYCARRLGLHFDYWGQGTTLTVSS
VL: DIVMTQSQKFMSTPVGDRVSITCKASQNVGTAVAWYQQKPGQSPKLLIYSASNRYTGVPDRFTGSGSGTDFTLTISNMQSEDLADYFCQQYSSYPYTFGGGTKLEIK
notes: chimeric, huIgG1/k
B8: chAb2-CZ (antibody, IgG1, V domains shown)
VH: B2 VH
VL: B2 VL
modifications: synthon CZ on reduced interchain Cys
B9: chAb11-CZ (antibody, IgG1, V domains shown)
VH: B3 VH
VL: B3 VL
modifications: synthon CZ on reduced interchain Cys
B10: chAb4-CZ (antibody, IgG1, V domains shown)
VH: B7 VH
VL: B7 VL
modifications: synthon CZ on reduced interchain Cys
B11: huAb18v8 (antibody, V domains shown)
VH: EVQLVQSGAEVKKPGSSVKVSCKASGYSFTSYTIHWVRQAPGQGLEWIGYINPNSRNTDYNQKFKDRTTLTADRSTSTAYMELSSLRSEDTAVYYCARYSGSTPYWYFDVWGQGTTVTVSS
VL: DIQLTQSPSFLSASVGDRVTITCRASSSVSYMNWYQQKPGKAPKPWIYATSNLASGVPSRFSVSGSGTEHTLTISSLQPEDFATYYCQQWSSNPLTFGQGTKLEIK
notes: humanized IgG
B12: huAb18v6 (antibody, V domains shown)
VH: B11 VH with I48M, N61A, K65Q, D66G, T68V, R74K
VL: EIVLTQSPDFQSVTPKEKVTITCRASSSVSYMNWYQQKPDQSPKLLIKATSNLASGVPSRFSGSGSGTDFTLTINSLEAEDAATYYCQQWSSNPLTFGQGTKLEIK
notes: humanized IgG
B13: huAb18v5 (antibody, V domains shown)
VH: B11 VH with I48M, T68V, L70I, R74K
VL: B12 VL
notes: humanized IgG
B14: huAb18v7 (antibody, V domains shown)
VH: B11 VH with I48M, N61A, K65Q, D66G, T68V, R74K
VL: B12 VL with L45P, L46W, K48Y, G63V, G65V, F70H
notes: humanized IgG
B15: huAb18v9 (antibody, V domains shown)
VH: B11 VH
VL: B12 VL with L45P, L46W, K48Y, G63V, G65V, F70H
notes: humanized IgG

Target: T1, Human full length B7-H3
Assay: FACS, NCI-H1650 cells
Experimental: To generate purified chimeric antibodies, expression vectors were transiently transfected into HEK293 6E suspension cell cultures in a ratio of 60% to 40% light to heavy chain construct. 1 mg/ml of polyethylenimine (PEI) or 2.6 μL/mL of Expifectamine was used to transfect the cells. Cell supernatants were harvested after five days in shaking flasks, spun down to pellet cells, and filtered through 0.22 μm filters to separate IgG from culture contaminants. Antibody-containing supernatants were purified on Akta Pure using protein A mAb SelectSure. Columns were equilibrated in PBS pH 7.4, supernatants were then passed through the column and a wash was performed with PBS pH 7.4. IgG were eluted with 0.1 M acetic acid pH 3.5 and collected in several aliquots. Fractions containing IgG were pooled and dialyzed in PBS overnight at 4° C.
(§1) Cells were harvested from flasks when approximately 80% confluent using Gibco® Cell Dissociation Buffer. Cells were washed once in PBS/1% FBS (FACS buffer) then resuspended at 2.5×10⁶ cells/mL in FACS buffer. 100 μL of cells/well were added to a round bottom 96-well plate. 10 μL of a 10× concentration of mAb/ADC (final concentrations are indicated the figures). Wells were washed twice with FACS buffer and resuspended in 50 μL of secondary Ab (AlexaFluor 488) diluted in FACS buffer. The plate was incubated at 4° C. for one hour and washed twice with FACS buffer. Cells were resuspended in 100 μL of PBS/1% formaldehyde and analyzed on a Becton Dickinson LSRII flow cytometer. Data was analyzed using WinList flow cytometry analysis software.

Going from B1 to B2, the EC50 falls from 1.14 nM to 0.1 nM (11-fold). The second is the more potent here.

Compared with B3, B4 is 3.4-fold lower in EC50: 1.12 nM for the first, 0.33 nM for the second. The second is the more potent here.

Going from B5 to B6, the EC50 rises from 0.27 nM to 0.81 nM (3-fold).

With B7 the EC50 was 0.56 nM.

Target: T1, Human full length B7-H3
Assay: FACS, cell surface human B7-H3 (as Example 6)
Experimental: as §1
Nine anti-B7-H3 chimeric antibodies were conjugated to the Bcl-xL inhibiting (Bcl-xLi) synthon CZ (Example 2.1) using conjugation Method A described below. The resulting ADCs (anti-B7-H3 antibodies conjugated to synthon CZ) were tested for binding to cell surface human B7-H3 by FACS (as described in Example 6) and for cell cytotoxicity in cell lines expressing B7-H3. […] Table 6 provides cell surface binding and cytotoxicity activity of anti-B7-H3 chimera ADCs against breast cancer cell HCC38 expressing human B7-H3.

Going from B8 to B9, the EC50 falls from 2.6 nM to 1.12 nM (2.3-fold).

B10 was tested, and the EC50 was 0.54 nM.

Target: T2, Human B7-H3-ECD (His tag)
Assay: SPR Biacore, naked mAb
Excerpt: Biacore T200 SPR instruments were used to measure the binding kinetics of human B7-H3 (analyte) binding to various mAbs (ligands). The assay format was Fc-based capture via immobilized anti-mouse (Fc) (Pierce 31170) or immobilized anti-human (Fc) (Pierce 31125). A standard amine coupling protocol was employed to immobilize the capture reagents via primary amines to the carboxy-methyl (CM) dextran surface of CM5 sensorchips (Biacore); capture antibodies were coupled to a level of approximately 5000RU. For binding kinetic measurements the assay buffer was HBS-EP+ (Biacore): 10 mM Hepes, pH7.4, 150 mM NaCl, 3 mM EDTA, 0.05% polysorbate 20. During the assay, all measurements were referenced against the capture surface alone. Each assay cycle consisted of the following steps: 1) Capture of ligand to approximately 50RU; 2) Analyte injection over both reference and test surface, 240 μL at 80 μL/min, after which the dissociation was monitored for 900 seconds at 80 μL/min; 3) Regeneration of capture surface with low pH glycine. […] Data were processed and fit to a 1:1 binding model using Biacore T200 Evaluation Software to determine the binding kinetic rate constants, kₐ (on-rate) and kd (off-rate), and the equilibrium dissociation constant (affinity, KD).
The parental chAb18 from which the variants were derived was also tested as a comparator.

B1 and B11 are within 1.5-fold of each other in Kd: 0.17 nM for the first, 0.25 nM for the second.

B12 and B13 are within 1.5-fold of each other in Kd: 0.2 nM for the first, 0.23 nM for the second.

B14 and B15 are within 1.5-fold of each other in Kd: 0.4 nM for the first, 0.38 nM for the second.
